The source of these data is paper PMC8005859 (2021).

The assay has as its target SARS-CoV-2 S trimer (SARS-CoV-2, UniProt P0DTC2). Description: SPR. In general terms: Surface plasmon resonance follows binding to a sensor surface in real time, without labels.

Several values for one entry are separate records, joined by “and”; a condition that tells them apart may be missing. Equal entries are not always repeated.

B1: P17 (antibody, V domains shown)
VH: QQLVESGGGVVQPGRSLRLSCAASGFTFSSYAMHWVRQAPGKGLEWVAVISYDGSNKYYADSVKGRFTISRDNSKNTLYLQMNSLRAEDTAVYYCARHATLMNNKDIWGQGTLVTVSS
VL: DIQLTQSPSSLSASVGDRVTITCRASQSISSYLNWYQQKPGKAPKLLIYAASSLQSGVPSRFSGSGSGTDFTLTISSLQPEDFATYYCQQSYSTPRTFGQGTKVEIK
With B1, the Kd (usually the constant that tells how readily two partners part at equilibrium) is 0.14 nM and 0.08 nM and 0.06 nM.
